Measured values reported in article PMC4729479.

Molecular target: hemagglutinin-esterase-fusion glycoprotein (HEF) of influenza D virus D/swine/Oklahoma/1334/2011, ectodomain (influenza D virus (D/swine/Oklahoma/1334/2011))
Assay: crystal structure

Substance “hemagglutinin-esterase-fusion glycoprotein (HEF) of influenza D virus D/swine/Oklahoma/1334/2011, ectodomain (domain or fragment)” has a stoichiometry N of 3.
